Results on one substance are retold here after publication PMC10148139.

This assay has as its target MAGE D2 MAGE homology domain (MHD), amino acids 261–521 (human) (UniProt Q9UNF1). Nature of the assay: MST.
Chain of UniProt Q9UNF1 (Q9UNF1 261-521): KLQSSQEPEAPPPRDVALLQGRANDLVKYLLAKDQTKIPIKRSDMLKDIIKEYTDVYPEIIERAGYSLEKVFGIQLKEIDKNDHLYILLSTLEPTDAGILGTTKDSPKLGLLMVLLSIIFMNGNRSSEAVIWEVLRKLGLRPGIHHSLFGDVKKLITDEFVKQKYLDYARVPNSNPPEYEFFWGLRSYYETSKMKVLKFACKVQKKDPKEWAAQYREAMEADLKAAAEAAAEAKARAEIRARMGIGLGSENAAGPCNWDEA

For the substance “Gαs AHD (amino acids 68–206), purified (from UniProt P63092-2 68-206) (domain or fragment)”, the Kd (commonly the free concentration of one partner at which half of the binding sites on the other are occupied at equilibrium, for simple one-to-one binding) worked out at 155 nM.
